In the nanobody polyreactivity screen of Harvey et al. (2022):

Assay: yeast display, Sf9 membrane polyspecificity reagent, FACS + sequencing; frameworks hold sequencing errors
Procedure, shortened: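 A synthetic nanobody library was expressed on Saccharomyces cerevisiae BJ5465 by galactose induction for 36–48 hours. The library was stained for 1 hour at 4 °C with 10% biotinylated, detergent-solubilized Sf9 membrane reagent and enriched with streptavidin microbeads before FACS. Low and high (top ~1%) gates were set on anti-HA fluorescence for expression and streptavidin fluorescence for reagent binding, and each polyreactivity label reflects the gate of origin.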

Row | Sequence | polyreactivity (PSR sort gate)
1 | QVQLVESGGGLVQAGGSLRLSCAASGSIFWVYAMGWYRPAPGKERELVAGISSGGSTNYADSVKGRCTISRDTAKKTVYLQMNSLKPEDTAVYYCAAVIRTVRERYGYWGQGTQVTVSS | high polyreactivity
2 | QVQLVESGGGLVQAGGSLRLSCAASGSIFWVYVMGWYRQAPGKEREFVAAISSSGGRTYYADSVKGRFTISRDNAKNTVYLQMNRLKPEDTAVYYCAARRYWWYSASAMDYWGQGTQVTVSS | high polyreactivity
3 | QVQLVESGGGLVQAGGSLRLSCAASGSIFWWNAMGWYRQAPGKERELVAAISYSGGSTYYADSVKGRFTISRDNAKKTVYLQRNSLKPEDTAVYYCAATKFRYYGYDYWGQGTQVTVSS | low polyreactivity
4 | QVQLVESGGGLVQAGGSLRLSCAASGSIFWWNAMGWYRQAPGKERELVAGITKIGSSTYYADSVKGRFTISRDNAKNTVYLQMNSLKPEDTAVYYCNAYGPNIYSSRYDYWGQGTQVTVSS | low polyreactivity
5 | QVQLVESGGGLVQAGGSLRLSCAASGSIFWWYAMGWYRQAPGKERELVAAIRWSGTTTFYADSLKGRFTISRDNAKNNVFLQMKSLKPEDTAVYYCNAEGGIWGVTSGYDYWGQGTQVTVSS | low polyreactivity
6 | QVQLVESGGGLVQAGGSLRLSCAASGSIFWYNAMGWSRPAPGKERELVAAITWSGGSTYYADSVKGRFTISRDNAKNTVYLQMNSLKPEDTAVYYCATVPHYYYDYDYWGQGTQVTVSS | low polyreactivity
7 | QVQLVESGGGLVQAGGSLRLSCAASGSIFWYNAMGWYRQAPGKESELVAAISWDGGSTYYADSVKGRFTISRDNAKNTVYLQMNSLKPEDTAVYYCNRVYIVWYTRYVVSGWYDYWGQGTEVTVSS | high polyreactivity
8 | QVQLVESGGGLVQAGGSLRLSCAASGSIFWYYAMGWYRQAPGKERELVADITSTGGSTYYADSVKGRFTISRDNAKNTVYLQMNSLKPEDTAVYYCAADNTYSEEDYWGQGTQVNVSS | high polyreactivity
9 | QVQLVESGGGLVQAGGSLRLSCAASGSIFWYYAMGWYRQAPGKERELVARITYSSGSTYYADSVKGRFTISRDNAKNTVYLQMNSLKPEDTAVFYCAVRLYSYLYNPFNYWGQGTQVTVSS | high polyreactivity
10 | QVQLVESGGGLVQAGGSLRLSCAASGSIFWYYAMGWYRQAPGKERELVATIRKRSGSTYYADSVKGRFTISRDNAKNTVYLQMNSLKPEDTAVYYCAADYTAYGYDYWGQGTQVTVSS | low polyreactivity
11 | QVQLVESGGGLVQAGGSLRLSCAASGSIFWYYTMGWYRQAPGKERELVATITRSGSRTYYADSVKGRFTISRDNAKNTVYLQMNSLNPEDTAVYYCAKDFGRWTYDYWGQATQVTVSS | low polyreactivity
12 | QVQLVESGGGLVQAGGSLRLSCAASGSIFYAYAMGWYIQAPGKERELVAGINTRGGSTYYADSVKGRFTISRDNAKNTVYLQMNSLKPEDTAVYYCAKGTAPIPYRGRVGTSKSDYWGQGTQVTVSS | low polyreactivity
13 | QVQLVESGGGLVQAGGSLRLSCAASGSIFYAYTMGWYRQAPGKERELVARITQSDDGTYYADSVKGRFTISRDNAKNTVYLQMNSLKPEDTAVYYCAVVFWQLAHRYDYWGQGTQVTVSS | low polyreactivity
14 | QVQLVESGGGLVQAGGSLRLSCAASGSIFYENAMGWYRQAPGKERELVAAISRSGGSTYYADSVKGRFTISRDNAKNTVYLQMNSLKPEDTAVYYCAADVYVFIGDYWGQGTQVTVSS | low polyreactivity
15 | QVQLVESGGGLVQAGGSLRLSCAASGSIFYENNMGWYRQAPGKEREFVAAISRSGGSTYYADSVKRRFTISRDNAKNTVYLQLNSLKPEDTAVYYCAARSRPGYAVYYWGQGTQVTVSS | high polyreactivity
16 | QVQLVESGGGLVQAGGSLRLSCAASGSIFYENTMGWYRQAPGKEREFVAAISRSGGSTYYADSEKGRYTISRDNAKNTVYLQRNSLKPEDTAVYYCAAKSRRYHHEYYYWGQGTQVTVSS | high polyreactivity
17 | QVQLVESGGGLVQAGGSLRLSCAASGSIFYENVMGWYRQAPGKERELVAGISRSGGRTYYADSVKGRFTISRDNAKNTVYLQMNSLIPEDTAVYYCNAARVYLSEWGQGTQVTVSS | high polyreactivity
